Measurements taken from IntAct's records for PubMed 10202051.

B1: Actin nucleation-promoting factor WAS (Homo sapiens), P42768 (parent)
chain: MSGGPMGGRPGGRGAPAVQQNIPSTLLQDHENQRLFEMLGRKCLTLATAVVQLYLALPPGAEHWTKEHCGAVCFVKDNPQKSYFIRLYGLQAGRLLWEQELYSQLVYSTPTPFFHTFAGDDCQAGLNFADEDEAQAFRALVQEKIQKRNQRQSGDRRQLPPPPTPANEERRGGLPPLPLHPGGDQGGPPVGPLSLGLATVDIQNPDITSSRYRGLPAPGPSPADKKRSGKKKISKADIGAPSGFKHVSHVGWDPQNGFDVNNLDPDLRSLFSRAGISEAQLTDAETSKLIYDFIEDQGGLEAVRQEMRRQEPLPPPPPPSRGGNQLPRPPIVGGNKGRSGPLPPVPLGIAPPPPTPRGPPPPGRGGPPPPPPPATGRSGPLPPPPPGAGGPPMPPPPPPPPPPPSSGNGPAPPPLPPALVPAGGLAPGGGRGALLDQIRQGIQLNKTPGAPESSALQPPPQSSEGLVGALMHVMQKRSRAIHSSDEGEDQAGDEDEDDEWDD

Variants of: B1
Conditions: with wipf1_human WIPF1, O43516
Chain of wipf1_human WIPF1, O43516 (O43516 whole entry): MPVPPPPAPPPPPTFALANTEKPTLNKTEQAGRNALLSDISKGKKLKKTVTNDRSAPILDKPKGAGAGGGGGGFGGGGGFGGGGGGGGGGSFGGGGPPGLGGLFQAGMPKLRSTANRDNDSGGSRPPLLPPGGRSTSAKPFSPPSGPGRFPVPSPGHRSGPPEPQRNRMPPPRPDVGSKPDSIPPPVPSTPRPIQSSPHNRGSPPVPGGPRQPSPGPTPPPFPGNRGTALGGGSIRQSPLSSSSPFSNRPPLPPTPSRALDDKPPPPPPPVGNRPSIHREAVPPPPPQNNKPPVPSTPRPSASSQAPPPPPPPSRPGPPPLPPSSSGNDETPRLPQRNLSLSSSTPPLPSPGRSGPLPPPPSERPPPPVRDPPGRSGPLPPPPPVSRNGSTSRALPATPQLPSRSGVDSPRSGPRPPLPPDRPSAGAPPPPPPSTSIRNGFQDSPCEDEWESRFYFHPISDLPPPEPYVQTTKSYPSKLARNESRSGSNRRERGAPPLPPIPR

Effect of a mutation on the interaction, decreasing interaction:
MSGGPMGGRPGGRGAPAVQQNIPSTLLQDHENQRLFEMLGRKCLTLATAVVQLYLALPPGAEHWTKEHCGAVCFVKDNPQKSYFIHLYGLQAGRLLWEQELYSQLVYSTPTPFFHTFAGDDCQAGLNFADEDEAQAFRALVQEKIQKRNQRQSGDRRQLPPPPTPANEERRGGLPPLPLHPGGDQGGPPVGPLSLGLATVDIQNPDITSSRYRGLPAPGPSPADKKRSGKKKISKADIGAPSGFKHVSHVGWDPQNGFDVNNLDPDLRSLFSRAGISEAQLTDAETSKLIYDFIEDQGGLEAVRQEMRRQEPLPPPPPPSRGGNQLPRPPIVGGNKGRSGPLPPVPLGIAPPPPTPRGPPPPGRGGPPPPPPPATGRSGPLPPPPPGAGGPPMPPPPPPPPPPPSSGNGPAPPPLPPALVPAGGLAPGGGRGALLDQIRQGIQLNKTPGAPESSALQPPPQSSEGLVGALMHVMQKRSRAIHSSDEGEDQAGDEDEDDEWDD [R86H]
MSGGPMGGRPGGRGAPAVQQNIPSTLLQDHENQRLFEMLGRKCLTLATAVVQLYLALPPGAEHWTKEHCGAVCFVKDNPQKSYFIRLYGLQAGRLLWEQELYSQLVCSTPTPFFHTFAGDDCQAGLNFADEDEAQAFRALVQEKIQKRNQRQSGDRRQLPPPPTPANEERRGGLPPLPLHPGGDQGGPPVGPLSLGLATVDIQNPDITSSRYRGLPAPGPSPADKKRSGKKKISKADIGAPSGFKHVSHVGWDPQNGFDVNNLDPDLRSLFSRAGISEAQLTDAETSKLIYDFIEDQGGLEAVRQEMRRQEPLPPPPPPSRGGNQLPRPPIVGGNKGRSGPLPPVPLGIAPPPPTPRGPPPPGRGGPPPPPPPATGRSGPLPPPPPGAGGPPMPPPPPPPPPPPSSGNGPAPPPLPPALVPAGGLAPGGGRGALLDQIRQGIQLNKTPGAPESSALQPPPQSSEGLVGALMHVMQKRSRAIHSSDEGEDQAGDEDEDDEWDD [Y107C]
MSGGPMGGRPGGRGAPAVQQNIPSTLLQDHENQRLFEMLGRKCLTLATAVVQLYLALPPGAEHWTKEHCGAVCFVKDNPQKSYFIRLYGLQAGRLLWEQELYSQLVYSTPTPFFHTFAGDDCQAGLNFADEDETQAFRALVQEKIQKRNQRQSGDRRQLPPPPTPANEERRGGLPPLPLHPGGDQGGPPVGPLSLGLATVDIQNPDITSSRYRGLPAPGPSPADKKRSGKKKISKADIGAPSGFKHVSHVGWDPQNGFDVNNLDPDLRSLFSRAGISEAQLTDAETSKLIYDFIEDQGGLEAVRQEMRRQEPLPPPPPPSRGGNQLPRPPIVGGNKGRSGPLPPVPLGIAPPPPTPRGPPPPGRGGPPPPPPPATGRSGPLPPPPPGAGGPPMPPPPPPPPPPPSSGNGPAPPPLPPALVPAGGLAPGGGRGALLDQIRQGIQLNKTPGAPESSALQPPPQSSEGLVGALMHVMQKRSRAIHSSDEGEDQAGDEDEDDEWDD [A134T]
